Paper PMC9106845 (2022)

Molecular target: T1, A02_YLQ peptide on HLA-A*02:01 (human)
T1 peptide: YLQPRTFLL
Test: multimer staining

B1: 839 (TCR)
alpha TRAV12-1 TRAJ47 CDR3: CVVNRADKLVF
beta TRBV7-9 TRBJ2-2 CDR3: CASSDANTGELFF
- binding result: recognises
